Biological target: GAL4 DBD-BRCA1 wild type (C-terminal region) (human) (UniProt P38398)
Experiment: two-hybrid; mammalian two-hybrid: GAL4 DBD-BRCA1 as bait, VP16 AD-PALB2 as prey, co-transfected with the pG5Luc luciferase reporter and the phGR-TK Renilla control; read-out is luciferase activity above that of the BRCA1 construct alone

Chain of UniProt P38398 (P38398 1396-1863): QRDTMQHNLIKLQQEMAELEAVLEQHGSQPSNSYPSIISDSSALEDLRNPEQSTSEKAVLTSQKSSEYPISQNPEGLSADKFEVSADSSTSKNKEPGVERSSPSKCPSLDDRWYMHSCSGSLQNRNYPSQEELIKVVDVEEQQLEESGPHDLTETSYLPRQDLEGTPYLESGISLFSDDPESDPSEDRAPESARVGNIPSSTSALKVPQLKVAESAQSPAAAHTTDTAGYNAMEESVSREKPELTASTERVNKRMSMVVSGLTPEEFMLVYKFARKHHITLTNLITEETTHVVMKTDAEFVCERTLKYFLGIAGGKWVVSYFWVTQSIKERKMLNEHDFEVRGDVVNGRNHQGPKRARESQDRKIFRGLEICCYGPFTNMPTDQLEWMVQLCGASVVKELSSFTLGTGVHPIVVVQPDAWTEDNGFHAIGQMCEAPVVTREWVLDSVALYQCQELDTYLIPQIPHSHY

fold increase in luciferase activity with VP16-PALB2: 3.8 fold
B1: VP16 AD–PALB2 fusion protein (PALB2 aa 1–319) (domain or fragment)
chain: MDEPPGKPLSCEEKEKLKEKLAFLKREYSKTLARLQRAQRAEKIKHSIKKTVEEQDCLSQQDLSPQLKHSEPKNKICVYDKLHIKTHLDEETGEKTSITLDVGPESFNPGDGPGGLPIQRTDDTQEHFPHRVSDPSGEQKQKLPSRRKKQQKRTFISQERDCVFGTDSLRLSGKRLKEQEEISSKNPARSPVTEIRTHLLSLKSELPDSPEPVTEINEDSVLIPPTAQPEKGVDTFLRRPNFTRATTVPLQTLSDSGSSQHLEHIPPKGSSELTTHDLKNIRFTSPVSLEAQGKKMTVSTDNLLVNKAISKSGQLPTSS
